For assay [1], the target named is T1, soluble human FcRn (shFcRn) (human, UniProt P55899 24-297; P61769 21-119).
T1 construct: Biotinylated for the ELISA, amine-coupled to a CM5 chip for SPR; also called biotinylated shFcRn
As to the kind of experiment: IgG competition ELISA.
Method: (§1) The wells were coated with 100 μl/well of 1 μg/ml biotinylated-shFcRn in Buffer A. The plate was sealed and incubated at 37° C. for 2 hours. Afterwards, the plate was washed with 200 μl/well of Buffer B (Buffer B: 100 mM MES pH 6, 150 mM NaCl, 0.5% BSA IgG-free (Jackson ImmunoResearch, West Grove, Pa.), 0.05% Tween-20). […] To allow for mixing, the plate was rocked for 2 minutes, sealed and incubated at 37° C. for 2 hours. […] The plate was covered, incubated for 30 minutes at room temperature and washed 4 times with 200 μl/well of ice-cold buffer B. SureBlue TMB substrate solution (100 μl/well, KPL, Gaithersburg, Md.) was added and the plate was allowed to incubate at room temperature until color developed, which took 5 to 10 minutes. Once color developed, 100 μl/well of TMB stop solution (KPL, Gaithersburg, Md.) was added and the absorbance was measured at 450 nm. The data was plotted as absorbance vs. peptide concentration to derive the inhibitory concentration 50% (IC₅₀) values.

Assay [2] addresses T1, soluble human FcRn (shFcRn). As to the kind of experiment: IgG competition ELISA. This is another data set of the same source.
Assay [3] has the same target. As to the kind of experiment: SPR pH 6; 4-PyridylAla in place of His.
Method: (§2) The following steps were performed to cross-link soluble human or cynomolgus FcRn to the dextran surface of a CM5 sensor chip (Biacore AB, Uppsala, Sweden) by an amine coupling reaction involving 1-ethyl-(3-dimethylaminopropyl)-carbodiimide hydrochloride (EDC) (Biacore AB, Uppsala, Sweden) and N-hydroxysuccinimide (NHS) (Biacore AB, Uppsala, Sweden) as recommended by Biacore (BIAapplications Handbook, version AB, section 4.2, Biacore AB, Uppsala, Sweden). […] Residual sites on the FcRn flow cell were blocked with 1 M ethanolamine hydrochloride pH 8.5 (Biacore AB, Uppsala, Sweden). A control flow cell was blocked with ethanolamine for reference subtraction. For analysis of the monomeric peptides, FcRn was coated to a final density of 4000-5000 response units (RU). For analysis of the peptide dimers, FcRn was coated to a density of 2000-2500 RU. All SPR measurements were performed using a BIACORE 3000 Instrument (Biacore AB Uppsala, Sweden). For measurements done at either pH 6 or pH 7.4, experiments were performed in 50 mM phosphate, 100 mM sodium chloride, 0.01% surfactant P20 (Biacore AB, Uppsala, Sweden).
(§3) Ten, 2-fold dilutions of the peptide were injected over the FcRn-CM5 chip at a rate of 20 μl/min for 2 min. The peptide was dissociated from the chip for 2.5 minutes with buffer. […] Sensorgrams were generated and analyzed using BiaEval software version 3.1 (Biacore AB, Uppsala, Sweden). […]
Assay [4] has the same target. As to the kind of experiment: SPR pH 7.4; 4-PyridylAla in place of His.
Method: as §2, §3
The target is the same in assay [5]. As to the kind of experiment: IgG competition ELISA. This is another data set of the same source.
Assay [6] shares this target. As to the kind of experiment: SPR pH 6; Peptide No. 31: lower-case c at both Cys (QRF-c-…-c-NGP).
Method: as §2, §3
For assay [7] the target is unchanged. As to the kind of experiment: SPR pH 7.4.
Method: as §2, §3
For assay [8] the target is unchanged. As to the kind of experiment: IgG competition ELISA. The source holds these as a separate data set.
Method: as §1

Like-named read-outs stand apart in the source and are kept apart here. Bridge positions count the residues as written; N and C are the ends. Square brackets hold non-standard residues; d marks the D form. Ends that are not written are not given here. NMeL = CN[C@@H](CC(C)C)C(=O)O; Pen = CC(C)(S)[C@H](N)C(=O)O; Sar = CNCC(=O)O

T1 sequence (P55899 24-297 limits assumed, chain 1 of 2): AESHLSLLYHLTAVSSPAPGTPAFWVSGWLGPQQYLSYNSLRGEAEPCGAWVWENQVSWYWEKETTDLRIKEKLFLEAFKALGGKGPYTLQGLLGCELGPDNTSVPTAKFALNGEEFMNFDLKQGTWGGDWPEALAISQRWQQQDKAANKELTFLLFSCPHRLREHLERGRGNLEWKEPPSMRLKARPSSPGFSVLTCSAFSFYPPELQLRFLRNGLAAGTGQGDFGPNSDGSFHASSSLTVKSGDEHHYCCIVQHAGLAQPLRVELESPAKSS
T1 sequence (P61769 21-119 limits assumed, chain 2 of 2): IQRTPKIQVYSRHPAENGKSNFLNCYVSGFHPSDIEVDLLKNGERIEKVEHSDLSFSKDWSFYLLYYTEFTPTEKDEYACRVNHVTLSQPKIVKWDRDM

B1: Peptide No. 289 (peptide)
peptide: RF[Pen]TGHFG[Sar][NMeL]YPC-NH2
modifications: disulfide 3-13; also: dimer: N-termini joined by an Asp linker carrying PEG 30 kDa, further groups not given here
notes: site of PEG only in drawing CHEM-US-00136; also called Pegylated Analog of Peptide No. 285
In turn, B1 showed an IC50 in assay [1] of 18 nM. In assay [2], RFCTGXFGGLYPC (Pen 3; 4-PyridylAla 6; Sar 9; NMeLeu 10; disulfide 3-13; C-terminal amide) [Peptide No. 268] gave an IC50 of 1300 nM. For the same molecule, the Kd in assay [3] was found to be 67 nM; in assay [4] it was 280 nM.

B2: Peptide No. 31 (peptide)
peptide: QRF[dC]TGHFGGLYP[dC]NGP-NH2
modifications: disulfide 4-14; N-terminus assumed
SMILES: CC(C)C[C@@H]1NC(=O)CNC(=O)CNC(=O)[C@H](Cc2ccccc2)NC(=O)[C@H](Cc2c[nH]cn2)NC(=O)CNC(=O)[C@H]([C@@H](C)O)NC(=O)[C@H](NC(=O)[C@H](Cc2ccccc2)NC(=O)[C@H](CCCNC(=N)N)NC(=O)[C@@H](N)CCC(N)=O)CSSC[C@H](C(=O)N[C@@H](CC(N)=O)C(=O)NCC(=O)N2CCC[C@H]2C(N)=O)NC(=O)[C@@H]2CCCN2C(=O)[C@H](Cc2ccc(O)cc2)NC1=O
Molecule B2 gave an IC50 in assay [5] above 500000 nM. In assay [6], this molecule displayed a Kd of 200000 nM.

B3: Peptide No. 24 (peptide)
peptide: QRFCTGHF[dA][dA]LYPCNGP-NH2
modifications: disulfide 4-14; N-terminus assumed
SMILES: CC(C)C[C@@H]1NC(=O)[C@@H](C)NC(=O)[C@@H](C)NC(=O)[C@H](Cc2ccccc2)NC(=O)[C@H](Cc2c[nH]cn2)NC(=O)CNC(=O)[C@H]([C@@H](C)O)NC(=O)[C@@H](NC(=O)[C@H](Cc2ccccc2)NC(=O)[C@H](CCCNC(=N)N)NC(=O)[C@@H](N)CCC(N)=O)CSSC[C@@H](C(=O)N[C@@H](CC(N)=O)C(=O)NCC(=O)N2CCC[C@H]2C(N)=O)NC(=O)[C@@H]2CCCN2C(=O)[C@H](Cc2ccc(O)cc2)NC1=O
B3: in assay [7], the Kd was above 250000 nM. In assay [8], QRFVTGHFG[dP]LYPVNGP-NH2 [Peptide No. 167] returned a half-maximal inhibitory concentration (IC50) of 93000 nM.

(Values after patent publication US20110059889A1 (SYNTONIX PHARMACEUTICALS, published 2011).)
